Source: the RNAGym collection of RNA variant scans (doi:10.1021/acssynbio.7b00057)

B1: Pistol ribozyme (parent)
chain: GGGUCGUUGUUCCAUAAUCGCGUGGAUAUGGCACGCAAGUUUCUACCGGGCACCGUAAAUGUCCGACUGGAGCCGUUCGGGCGGCUAUAAACAGACCUCAGGCCCGAAGCGUGGCGGCACCUGCCGCCGGUGGUAAAAAAGAUCGGAAGAGCACACGUCU

Variants of: B1
Test: aptazyme ON/OFF ratio, guanine; higher = stronger switching; co-transcriptional cleavage with and without guanine

| Variant | aptazyme ON/OFF ratio |
| --- | --- |
| GGGUCGUCGGACCAUAAUCGCGUGGAUAUGGCACGCAAGUUUCUACCGGGCACCGUAAAUGUCCGACUGGAGCCGUUCGGGCGGCUAUAAACAGACCUCAGGCCCGAAGCGUGGCGGCACCUGCCGCCGGUGGUAAAAAAGAUCGGAAGAGCACACGUCU [U8C U10G U11A] | 1.07 |
| GGGUCGUCGGUAUAUAAUCGCGUGGAUAUGGCACGCAAGUUUCUACCGGGCACCGUAAAUGUCCGACUGGAGCCGUUCGGGCGGCUAUAAACAGACCUCAGGCCCGAAGCGUGGCGGCACCUGCCGCCGGUGGUAAAAAAGAUCGGAAGAGCACACGUCU [U8C U10G C12A C13U] | 1.11 |
| GGGUCGUCGGUAGAUAAUCGCGUGGAUAUGGCACGCAAGUUUCUACCGGGCACCGUAAAUGUCCGACUGGAGCCGUUCGGGCGGCUAUAAACAGACCUCAGGCCCGAAGCGUGGCGGCACCUGCCGCCGGUGGUAAAAAAGAUCGGAAGAGCACACGUCU [U8C U10G C12A C13G] | 1.11 |
| GGGUCGUCGGUAAAUAAUCGCGUGGAUAUGGCACGCAAGUUUCUACCGGGCACCGUAAAUGUCCGACUGGAGCCGUUCGGGCGGCUAUAAACAGACCUCAGGCCCGAAGCGUGGCGGCACCUGCCGCCGGUGGUAAAAAAGAUCGGAAGAGCACACGUCU [U8C U10G C12A C13A] | 1.11 |
| GGGUCGUCGGUUAAUAAUCGCGUGGAUAUGGCACGCAAGUUUCUACCGGGCACCGUAAAUGUCCGACUGGAGCCGUUCGGGCGGCUAUAAACAGACCUCAGGCCCGAAGCGUGGCGGCACCUGCCGCCGGUGGUAAAAAAGAUCGGAAGAGCACACGUCU [U8C U10G C12U C13A] | 1.21 |
| GGGUCGUCGGUUGAUAAUCGCGUGGAUAUGGCACGCAAGUUUCUACCGGGCACCGUAAAUGUCCGACUGGAGCCGUUCGGGCGGCUAUAAACAGACCUCAGGCCCGAAGCGUGGCGGCACCUGCCGCCGGUGGUAAAAAAGAUCGGAAGAGCACACGUCU [U8C U10G C12U C13G] | 1.11 |
| GGGUCGUCGGUUUAUAAUCGCGUGGAUAUGGCACGCAAGUUUCUACCGGGCACCGUAAAUGUCCGACUGGAGCCGUUCGGGCGGCUAUAAACAGACCUCAGGCCCGAAGCGUGGCGGCACCUGCCGCCGGUGGUAAAAAAGAUCGGAAGAGCACACGUCU [U8C U10G C12U C13U] | 1.2 |
| GGGUCGUCGGUCCAUAAUCGCGUGGAUAUGGCACGCAAGUUUCUACCGGGCACCGUAAAUGUCCGACUGGAGCCGUUCGGGCGGCUAUAAACAGACCUCAGGCCCGAAGCGUGGCGGCACCUGCCGCCGGUGGUAAAAAAGAUCGGAAGAGCACACGUCU [U8C U10G] | 1.76 |
| GGGUCGUCGCGUCAUAAUCGCGUGGAUAUGGCACGCAAGUUUCUACCGGGCACCGUAAAUGUCCGACUGGAGCCGUUCGGGCGGCUAUAAACAGACCUCAGGCCCGAAGCGUGGCGGCACCUGCCGCCGGUGGUAAAAAAGAUCGGAAGAGCACACGUCU [U8C U10C U11G C12U] | 1.39 |
| GGGUCGUCGCGGCAUAAUCGCGUGGAUAUGGCACGCAAGUUUCUACCGGGCACCGUAAAUGUCCGACUGGAGCCGUUCGGGCGGCUAUAAACAGACCUCAGGCCCGAAGCGUGGCGGCACCUGCCGCCGGUGGUAAAAAAGAUCGGAAGAGCACACGUCU [U8C U10C U11G C12G] | 1.25 |
| GGGUCGUCGGUGAAUAAUCGCGUGGAUAUGGCACGCAAGUUUCUACCGGGCACCGUAAAUGUCCGACUGGAGCCGUUCGGGCGGCUAUAAACAGACCUCAGGCCCGAAGCGUGGCGGCACCUGCCGCCGGUGGUAAAAAAGAUCGGAAGAGCACACGUCU [U8C U10G C12G C13A] | 1.09 |
| GGGUCGUCGGUGUAUAAUCGCGUGGAUAUGGCACGCAAGUUUCUACCGGGCACCGUAAAUGUCCGACUGGAGCCGUUCGGGCGGCUAUAAACAGACCUCAGGCCCGAAGCGUGGCGGCACCUGCCGCCGGUGGUAAAAAAGAUCGGAAGAGCACACGUCU [U8C U10G C12G C13U] | 1.12 |
| GGGUCGUCGGUGGAUAAUCGCGUGGAUAUGGCACGCAAGUUUCUACCGGGCACCGUAAAUGUCCGACUGGAGCCGUUCGGGCGGCUAUAAACAGACCUCAGGCCCGAAGCGUGGCGGCACCUGCCGCCGGUGGUAAAAAAGAUCGGAAGAGCACACGUCU [U8C U10G C12G C13G] | 1.12 |
| GGGUCGUCGGAACAUAAUCGCGUGGAUAUGGCACGCAAGUUUCUACCGGGCACCGUAAAUGUCCGACUGGAGCCGUUCGGGCGGCUAUAAACAGACCUCAGGCCCGAAGCGUGGCGGCACCUGCCGCCGGUGGUAAAAAAGAUCGGAAGAGCACACGUCU [U8C U10G U11A C12A] | 1.32 |
| GGGUCGUCGGAGCAUAAUCGCGUGGAUAUGGCACGCAAGUUUCUACCGGGCACCGUAAAUGUCCGACUGGAGCCGUUCGGGCGGCUAUAAACAGACCUCAGGCCCGAAGCGUGGCGGCACCUGCCGCCGGUGGUAAAAAAGAUCGGAAGAGCACACGUCU [U8C U10G U11A C12G] | 1.23 |
| GGGUCGUCGCGAUAUAAUCGCGUGGAUAUGGCACGCAAGUUUCUACCGGGCACCGUAAAUGUCCGACUGGAGCCGUUCGGGCGGCUAUAAACAGACCUCAGGCCCGAAGCGUGGCGGCACCUGCCGCCGGUGGUAAAAAAGAUCGGAAGAGCACACGUCU [U8C U10C U11G C12A C13U] | 1.33 |
| GGGUCGUCGCGCAAUAAUCGCGUGGAUAUGGCACGCAAGUUUCUACCGGGCACCGUAAAUGUCCGACUGGAGCCGUUCGGGCGGCUAUAAACAGACCUCAGGCCCGAAGCGUGGCGGCACCUGCCGCCGGUGGUAAAAAAGAUCGGAAGAGCACACGUCU [U8C U10C U11G C13A] | 1.26 |
| GGGUCGUCGCGCGAUAAUCGCGUGGAUAUGGCACGCAAGUUUCUACCGGGCACCGUAAAUGUCCGACUGGAGCCGUUCGGGCGGCUAUAAACAGACCUCAGGCCCGAAGCGUGGCGGCACCUGCCGCCGGUGGUAAAAAAGAUCGGAAGAGCACACGUCU [U8C U10C U11G C13G] | 1.14 |

| Variant | aptazyme ON/OFF ratio |
| --- | --- |
| GGGUCGUCGCGCUAUAAUCGCGUGGAUAUGGCACGCAAGUUUCUACCGGGCACCGUAAAUGUCCGACUGGAGCCGUUCGGGCGGCUAUAAACAGACCUCAGGCCCGAAGCGUGGCGGCACCUGCCGCCGGUGGUAAAAAAGAUCGGAAGAGCACACGUCU [U8C U10C U11G C13U] | 1.28 |
| GGGUCGUCGCGGAAUAAUCGCGUGGAUAUGGCACGCAAGUUUCUACCGGGCACCGUAAAUGUCCGACUGGAGCCGUUCGGGCGGCUAUAAACAGACCUCAGGCCCGAAGCGUGGCGGCACCUGCCGCCGGUGGUAAAAAAGAUCGGAAGAGCACACGUCU [U8C U10C U11G C12G C13A] | 1.25 |
| GGGUCGUCGCGGUAUAAUCGCGUGGAUAUGGCACGCAAGUUUCUACCGGGCACCGUAAAUGUCCGACUGGAGCCGUUCGGGCGGCUAUAAACAGACCUCAGGCCCGAAGCGUGGCGGCACCUGCCGCCGGUGGUAAAAAAGAUCGGAAGAGCACACGUCU [U8C U10C U11G C12G C13U] | 1.08 |
| GGGUCGUCGCGGGAUAAUCGCGUGGAUAUGGCACGCAAGUUUCUACCGGGCACCGUAAAUGUCCGACUGGAGCCGUUCGGGCGGCUAUAAACAGACCUCAGGCCCGAAGCGUGGCGGCACCUGCCGCCGGUGGUAAAAAAGAUCGGAAGAGCACACGUCU [U8C U10C U11G C12G C13G] | 1.15 |
| GGGUCGUCGGUGCAUAAUCGCGUGGAUAUGGCACGCAAGUUUCUACCGGGCACCGUAAAUGUCCGACUGGAGCCGUUCGGGCGGCUAUAAACAGACCUCAGGCCCGAAGCGUGGCGGCACCUGCCGCCGGUGGUAAAAAAGAUCGGAAGAGCACACGUCU [U8C U10G C12G] | 1.07 |
| GGGUCGUCGGUACAUAAUCGCGUGGAUAUGGCACGCAAGUUUCUACCGGGCACCGUAAAUGUCCGACUGGAGCCGUUCGGGCGGCUAUAAACAGACCUCAGGCCCGAAGCGUGGCGGCACCUGCCGCCGGUGGUAAAAAAGAUCGGAAGAGCACACGUCU [U8C U10G C12A] | 1.12 |
| GGGUCGUCGGUUCAUAAUCGCGUGGAUAUGGCACGCAAGUUUCUACCGGGCACCGUAAAUGUCCGACUGGAGCCGUUCGGGCGGCUAUAAACAGACCUCAGGCCCGAAGCGUGGCGGCACCUGCCGCCGGUGGUAAAAAAGAUCGGAAGAGCACACGUCU [U8C U10G C12U] | 1.36 |
| GGGUCGUCGGAGAAUAAUCGCGUGGAUAUGGCACGCAAGUUUCUACCGGGCACCGUAAAUGUCCGACUGGAGCCGUUCGGGCGGCUAUAAACAGACCUCAGGCCCGAAGCGUGGCGGCACCUGCCGCCGGUGGUAAAAAAGAUCGGAAGAGCACACGUCU [U8C U10G U11A C12G C13A] | 1.13 |
| GGGUCGUCGGAGGAUAAUCGCGUGGAUAUGGCACGCAAGUUUCUACCGGGCACCGUAAAUGUCCGACUGGAGCCGUUCGGGCGGCUAUAAACAGACCUCAGGCCCGAAGCGUGGCGGCACCUGCCGCCGGUGGUAAAAAAGAUCGGAAGAGCACACGUCU [U8C U10G U11A C12G C13G] | 1.15 |
| GGGUCGUCGCGUAAUAAUCGCGUGGAUAUGGCACGCAAGUUUCUACCGGGCACCGUAAAUGUCCGACUGGAGCCGUUCGGGCGGCUAUAAACAGACCUCAGGCCCGAAGCGUGGCGGCACCUGCCGCCGGUGGUAAAAAAGAUCGGAAGAGCACACGUCU [U8C U10C U11G C12U C13A] | 1.26 |
| GGGUCGUCGCGUUAUAAUCGCGUGGAUAUGGCACGCAAGUUUCUACCGGGCACCGUAAAUGUCCGACUGGAGCCGUUCGGGCGGCUAUAAACAGACCUCAGGCCCGAAGCGUGGCGGCACCUGCCGCCGGUGGUAAAAAAGAUCGGAAGAGCACACGUCU [U8C U10C U11G C12U C13U] | 1.46 |
| GGGUCGUCGCGUGAUAAUCGCGUGGAUAUGGCACGCAAGUUUCUACCGGGCACCGUAAAUGUCCGACUGGAGCCGUUCGGGCGGCUAUAAACAGACCUCAGGCCCGAAGCGUGGCGGCACCUGCCGCCGGUGGUAAAAAAGAUCGGAAGAGCACACGUCU [U8C U10C U11G C12U C13G] | 1.28 |
| GGGUCGUCGGAAUAUAAUCGCGUGGAUAUGGCACGCAAGUUUCUACCGGGCACCGUAAAUGUCCGACUGGAGCCGUUCGGGCGGCUAUAAACAGACCUCAGGCCCGAAGCGUGGCGGCACCUGCCGCCGGUGGUAAAAAAGAUCGGAAGAGCACACGUCU [U8C U10G U11A C12A C13U] | 1.2 |
| GGGUCGUCGGAAAAUAAUCGCGUGGAUAUGGCACGCAAGUUUCUACCGGGCACCGUAAAUGUCCGACUGGAGCCGUUCGGGCGGCUAUAAACAGACCUCAGGCCCGAAGCGUGGCGGCACCUGCCGCCGGUGGUAAAAAAGAUCGGAAGAGCACACGUCU [U8C U10G U11A C12A C13A] | 1.18 |
| GGGUCGUCGGAAGAUAAUCGCGUGGAUAUGGCACGCAAGUUUCUACCGGGCACCGUAAAUGUCCGACUGGAGCCGUUCGGGCGGCUAUAAACAGACCUCAGGCCCGAAGCGUGGCGGCACCUGCCGCCGGUGGUAAAAAAGAUCGGAAGAGCACACGUCU [U8C U10G U11A C12A C13G] | 1.15 |
| GGGUCGUCGGUCAAUAAUCGCGUGGAUAUGGCACGCAAGUUUCUACCGGGCACCGUAAAUGUCCGACUGGAGCCGUUCGGGCGGCUAUAAACAGACCUCAGGCCCGAAGCGUGGCGGCACCUGCCGCCGGUGGUAAAAAAGAUCGGAAGAGCACACGUCU [U8C U10G C13A] | 1.27 |
| GGGUCGUCGGUCGAUAAUCGCGUGGAUAUGGCACGCAAGUUUCUACCGGGCACCGUAAAUGUCCGACUGGAGCCGUUCGGGCGGCUAUAAACAGACCUCAGGCCCGAAGCGUGGCGGCACCUGCCGCCGGUGGUAAAAAAGAUCGGAAGAGCACACGUCU [U8C U10G C13G] | 1.15 |
| GGGUCGUCGGUCUAUAAUCGCGUGGAUAUGGCACGCAAGUUUCUACCGGGCACCGUAAAUGUCCGACUGGAGCCGUUCGGGCGGCUAUAAACAGACCUCAGGCCCGAAGCGUGGCGGCACCUGCCGCCGGUGGUAAAAAAGAUCGGAAGAGCACACGUCU [U8C U10G C13U] | 1.37 |
